Data: article PMC3002026 (The Journal of Cell Biology, 2010)

Molecular target: the molecule itself
Test: AUC

B1: Mdv1 CC^231–299 (domain or fragment, yeast)
chain: GPQTLVNSLEFLNIQKNSTLSEIRDIEVEVENLRQKKEKLLGKIANIEQNQLLLEDNLKQIDDRLDFLEEY
stoichiometry N: 1.95
